Source: patent US20250326818A1 (UNIVERSIT T BASEL, published 2025)

Biological target: T1, CD123 ECD wt (human, UniProt P26951 19-305)
T1 construct: Recombinant extracellular domain; Biotinylated when captured for the hIL3 assay; also called CD123_WT; recombinant wildtype CD123
T1 sequence: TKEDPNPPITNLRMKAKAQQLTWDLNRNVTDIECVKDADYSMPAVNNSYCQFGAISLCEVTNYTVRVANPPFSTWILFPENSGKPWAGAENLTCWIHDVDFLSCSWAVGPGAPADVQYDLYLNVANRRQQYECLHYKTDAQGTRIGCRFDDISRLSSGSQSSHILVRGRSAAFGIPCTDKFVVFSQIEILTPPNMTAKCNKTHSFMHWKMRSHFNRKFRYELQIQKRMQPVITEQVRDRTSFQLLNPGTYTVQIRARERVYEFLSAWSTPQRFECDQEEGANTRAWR
Experiment: BLI (Octet), flotetuzumab hIgG1 captured on anti-human Fc tips, CD123 ECD as analyte, level at 250 s
Description: Antibody flotetuzumab hIgG1 was captured by Anti-Human Fc capture biosensor (AHC) (Sartorius, PN: 18-5060) for 300 s at 0.5 μg/mL. Analytes CD123 ECD wt and variants (only CD123 ECD variants at high analyte concentrations) were titrated at 7 concentrations from 50 nM to 0.78 nM or 300 nM to 4.7 nM, respectively. Association to analyte was monitored for 300 s and dissociation for 600 s (CD123 wt) and 900 s (CD123 variants). Double reference subtraction was performed against buffer only well and biosensor loaded with a negative hIgG1 control. Regeneration was performed in 10 mM Gly-HCl pH 1.7. Data were analyzed using the Octet Data Analysis software HT

binding result: binds
B1: Flotetuzumab hIgG1 (antibody, V domains shown)
VH: EVQLVQSGAELKKPGASVKVSCKASGYTFTDYYMKWVRQAPGQGLEWIGDIIPSNGATFYNQKFKGRVTITVDKSTSTAYMELSSLRSEDTAVYYCARSHLLRASWFAYWGQGTLVTVSS
VL: DFVMTQSPDSLAVSLGERVTMSCKSSQSLLNSGNQKNYLTWYQQKPGQPPKLLIYWASTRESGVPDRFSGSGSGTDFTLTISSLQAEDVAVYYCQNDYSYPYTFGQGTKLEIK
notes: Tested as hIgG1 in BLI; also called Anti-CD123 antibody (Flotetuzumab)
